Reference: patent US20260209386A1 (MYTHIC THERAPEUTICS, published 2026)
Numbering of substitutions follows the chain as printed.

T1: Human PTK7/CCK4 Protein, His Tag, Acro Biosystems PT7-H52H3 (human, UniProt Q13308 31-704)
T1 construct: bought protein; also called Human PTK7 Protein, His Tag, Acro Biosystems; not shown: His tag
T1 sequence: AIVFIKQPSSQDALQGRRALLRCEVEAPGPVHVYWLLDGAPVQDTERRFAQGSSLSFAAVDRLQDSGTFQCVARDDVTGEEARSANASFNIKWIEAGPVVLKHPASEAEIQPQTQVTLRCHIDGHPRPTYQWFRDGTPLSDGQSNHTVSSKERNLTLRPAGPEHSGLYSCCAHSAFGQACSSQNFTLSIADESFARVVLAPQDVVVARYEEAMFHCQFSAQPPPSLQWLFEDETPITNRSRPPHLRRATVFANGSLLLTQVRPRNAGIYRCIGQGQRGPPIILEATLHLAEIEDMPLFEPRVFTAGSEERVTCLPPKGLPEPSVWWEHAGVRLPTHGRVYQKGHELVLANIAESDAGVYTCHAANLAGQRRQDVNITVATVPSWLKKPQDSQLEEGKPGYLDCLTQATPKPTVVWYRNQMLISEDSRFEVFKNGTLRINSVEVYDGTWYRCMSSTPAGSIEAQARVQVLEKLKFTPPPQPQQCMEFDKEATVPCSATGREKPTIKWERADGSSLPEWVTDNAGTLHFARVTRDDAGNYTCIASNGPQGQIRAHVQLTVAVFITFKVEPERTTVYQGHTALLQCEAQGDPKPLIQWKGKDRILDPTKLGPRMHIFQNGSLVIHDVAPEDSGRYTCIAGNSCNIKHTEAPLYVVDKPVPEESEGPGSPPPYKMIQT

T2: Human PTK7 Protein, His Tag (Acro Biosystems) (human, UniProt Q13308 31-704)
T2 construct: Bought recombinant protein; also called CCK4; tyrosine-protein kinase-like 7; not shown: His tag
T2 sequence: T1 sequence

B1: MYT6186 (antibody, V domains shown)
VH: QVQLVQSGPEVKKPGASVKVSCKASGYTFTDYAVHWVRQAPGKRLEWIGVISTYNDYTYNNQDFKGRVTMTRDTSASTAYMELSRLRSEDTAVYYCARGNHYFYALDYWGQGTSVTVSS
VL: EIVLTQSPATLSLSPGERATLSCRASESVDSYGKSFMHWYQQKPGQAPRLLIYRASNLESGIPARFSGSGSGTDFTLTISSLEPEDFAVYYCQQSNEDPWTFGGGTKLEIK
notes: IgG
B2: MYT6190 (antibody, V domains shown)
VH: B1 VH with H101S, A105H
VL: B1 VL
notes: IgG
B3: MYT6209 (antibody, V domains shown)
VH: B1 VH with H101S
VL: B1 VL with R54H
notes: IgG
B4: MYT6218 (antibody, V domains shown)
VH: B1 VH with H101S
VL: B1 VL with S95H
notes: IgG
B5: MYT6221 (antibody, V domains shown)
VH: B1 VH with H101S
VL: B1 VL with D98H
notes: IgG
B6: MYT6210 (antibody, V domains shown)
VH: B1 VH with H101S
VL: B1 VL with A55H
notes: IgG
B7: MYT6206 (antibody, V domains shown)
VH: B1 VH with H101S
VL: B1 VL with F36H
notes: IgG
B8: MYT6231 (antibody, V domains shown)
VH: QVQLVESGGGVVQPGRSLRLSCAASGFTFSSHGMHWVRQAPGKGLEWVAVIWDDGSNKYYVDSVKGRFTISRDNSKNTLYLQMNSLRAEDTAVYYCARDDYYGSGSFNSYYGTDVWGQGTTVTVSS
VL: EIVLTQSPATLSLSPGERATLSCRASQSVSIYLAWYQQKPGQAPRLLIYDASNRATGIPARFSGSGSGTDFTLTISSLEPEDFAVYYCQQRSNWPPFTFGPGTKVDIK
notes: IgG
B9: MYT6269 (antibody, V domains shown)
VH: B8 VH with H32Y, D114H
VL: B8 VL
notes: IgG
B10: MYT6256 (antibody, V domains shown)
VH: B8 VH with H32Y, Y101H
VL: B8 VL
notes: IgG
B11: MYT6254 (antibody, V domains shown)
VH: B8 VH with H32Y, D99H
VL: B8 VL
notes: IgG
B12: MYT6268 (antibody, V domains shown)
VH: B8 VH with H32Y, T113H
VL: B8 VL
notes: IgG
B13: MYT6232 (antibody, V domains shown)
VH: B8 VH with H32Y, G33H
VL: B8 VL
notes: IgG
B14: MYT6253 (antibody, V domains shown)
VH: B8 VH with H32Y, R98H
VL: B8 VL
notes: IgG
B15: MYT6267 (antibody, V domains shown)
VH: B8 VH with H32Y, G112H
VL: B8 VL
notes: IgG
B16: MYT6255 (antibody, V domains shown)
VH: B8 VH with H32Y, D100H
VL: B8 VL
notes: IgG
B17: MYT6244 (antibody, V domains shown)
VH: B8 VH with H32Y, Y59H
VL: B8 VL
notes: IgG
B18: MYT11349 (antibody, V domains shown)
VH: EVQLVESGGGLVQPGGSLRLSCTASGIDLSNYAVIWVRQAPGKGLEWVGHIYTYDTTYYANWAKGRFTISRDTSKNTVYLQMNSLRAEDTAVYFCARSFSDISDLIKLWGQGTLVTVSS
VL: EIVMTQSPSTLSASVGDRVIITCQASQSLYNNKDLAWYQQKPGKAPKLLIYEASKLASGVPSRFSGSGSGAEFTLTISSLQPDDFATYYCLGEFSCGSGDCLAFGQGTKLTVL
notes: MYT9797 HC variant; captured via anti-human Fc
B19: MYT11352 (antibody, V domains shown)
VH: B18 VH with H50I, T53H
VL: B18 VL
notes: as for B18
B20: MYT11396 (antibody, V domains shown)
VH: B18 VH with H50I
VL: B18 VL with E52H
notes: MYT9797 LC variant; captured via anti-human Fc
B21: MYT11369 (antibody, V domains shown)
VH: B18 VH with H50I, S100H
VL: B18 VL
notes: as for B18
B22: MYT11356 (antibody, V domains shown)
VH: B18 VH with H50I, T57H
VL: B18 VL
notes: as for B18
B23: MYT11398 (antibody, V domains shown)
VH: B18 VH with H50I
VL: B18 VL with S54H
notes: as for B20
B24: MYT11363 (antibody, V domains shown)
VH: B18 VH with H50I, K64H
VL: B18 VL
notes: as for B18
B25: MYT11409 (antibody, V domains shown)
VH: B18 VH with H50I
VL: B18 VL with S98H
notes: as for B20
B26: MYT11354 (antibody, V domains shown)
VH: B18 VH with H50I, D55H
VL: B18 VL
notes: as for B18
B27: MYT11380 (antibody, V domains shown)
VH: B18 VH with H50I, D55A
VL: B18 VL
notes: MYT9797 HC alanine variant; captured via anti-human Fc
B28: MYT11410 (antibody, V domains shown)
VH: B18 VH with H50I
VL: B18 VL with G99H
notes: as for B20
B29: MYT11394 (antibody, V domains shown)
VH: B18 VH with H50I
VL: B18 VL with L35H
notes: as for B20
B30: MYT11355 (antibody, V domains shown)
VH: B18 VH with H50I, T56H
VL: B18 VL
notes: as for B18
B31: MYT11392 (antibody, V domains shown)
VH: B18 VH with H50I
VL: B18 VL with K33H
notes: as for B20
B32: MYT11376 (antibody, V domains shown)
VH: B18 VH with H50I, K107H
VL: B18 VL
notes: as for B18
B33: MYT11417 (antibody, V domains shown)
VH: B18 VH with H50I
VL: B18 VL with D34A
notes: MYT9797 LC alanine variant; captured via anti-human Fc
B34: MYT11357 (antibody, V domains shown)
VH: B18 VH with H50I, Y58H
VL: B18 VL
notes: as for B18
B35: MYT11390 (antibody, V domains shown)
VH: B18 VH with H50I
VL: B18 VL with N31H
notes: as for B20
B36: MYT11393 (antibody, V domains shown)
VH: B18 VH with H50I
VL: B18 VL with D34H
notes: as for B20

The binders below were run against T1, Human PTK7/CCK4 Protein, His Tag, Acro … (assay: BLI, antibody on anti-human Fc sensor).

| binding result | Binder |
| --- | --- |
| no binding (tested: 50 nM PTK7) | B1 |
| no binding (tested: 50 nM PTK7) | B2 |
| no binding (tested: 50 nM PTK7) | B3 |
| no binding (tested: 50 nM PTK7) | B4 |
| no binding (tested: 50 nM PTK7) | B5 |
| no binding (tested: 50 nM PTK7) | B6 |
| no binding (tested: 50 nM PTK7) | B7 |
| no binding (tested: 50 nM PTK7) | B8 |
| no binding (tested: 50 nM PTK7) | B9 |
| no binding (tested: 50 nM PTK7) | B10 |
| no binding (tested: 50 nM PTK7) | B11 |
| no binding (tested: 50 nM PTK7) | B12 |
| no binding (tested: 50 nM PTK7) | B13 |
| no binding (tested: 50 nM PTK7) | B14 |
| no binding (tested: 50 nM PTK7) | B15 |
| no binding (tested: 50 nM PTK7) | B16 |
| no binding (tested: 50 nM PTK7) | B17 |

What follows are binders tested against T2, Human PTK7 Protein, His Tag (Acro …) (assay: BLI, antibody on anti-human Fc sensor, 50 nM PTK7 at pH 7.4, dissociation at pH 7.4 or 5.4; 1 = pH dependent binding relative to parent).

| binding result | Binder |
| --- | --- |
| binds | B18 |
| binds | B19 |
| binds | B20 |
| binds | B21 |
| binds | B22 |
| binds | B23 |
| binds | B24 |
| binds | B25 |
| binds | B26 |
| binds | B27 |
| binds | B28 |
| binds | B29 |
| binds | B30 |
| binds | B31 |
| binds | B32 |
| binds | B33 |
| binds | B34 |
| binds | B35 |
| binds | B36 |
